Source: US20080076129A1, “Method of Detecting an Increased Susceptibility to Breast Cancer” (priority 2000, published 2008)

T1: CYP1B1 (Homo sapiens, UniProt Q16678, L432V)
T1 construct: made in house; host or cells: Escherichia coli DH5αF′Iq
T1 sequence (Q16678 26-543 L432V): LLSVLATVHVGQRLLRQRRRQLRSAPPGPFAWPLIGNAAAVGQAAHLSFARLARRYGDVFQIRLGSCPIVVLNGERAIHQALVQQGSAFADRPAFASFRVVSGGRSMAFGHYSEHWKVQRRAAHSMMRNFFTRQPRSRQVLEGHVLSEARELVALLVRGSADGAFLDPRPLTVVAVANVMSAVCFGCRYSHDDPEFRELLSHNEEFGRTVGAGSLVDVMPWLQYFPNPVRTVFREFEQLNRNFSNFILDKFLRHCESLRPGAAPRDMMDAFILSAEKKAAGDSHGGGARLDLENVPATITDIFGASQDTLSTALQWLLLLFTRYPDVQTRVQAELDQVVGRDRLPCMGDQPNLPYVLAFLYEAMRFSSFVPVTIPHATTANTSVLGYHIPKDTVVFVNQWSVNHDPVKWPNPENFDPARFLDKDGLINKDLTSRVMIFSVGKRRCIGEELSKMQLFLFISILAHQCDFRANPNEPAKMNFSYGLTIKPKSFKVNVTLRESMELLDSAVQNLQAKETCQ


Experiments:
DNA = conditions: cited from earlier work
CYP1B1 [1] = target: T1, CYP1B1; test: Assay of CYP1B1 E2 hydroxylation activity; type: biochemical; conditions: text and FIG. 4; read-out: 2-OH-E2 hydroxylation Km
Description: (§1) Assay of CYP1B1 E2 Hydroxylation Activity. Purified CYP1B1 (200 pmol) was reconstituted with a 2-fold molar amount of recombinant rat NADPH-P450 reductase (400 pmol), purified as previously described, and 60 μg of L-α-dilauroyl-sn-glycero-3-phosphocholine in the presence of sodium cholate (0.005%, w/v) in 0.4 ml of 100 mM potassium phosphate buffer, pH 7.4, containing varying concentrations of E2 (2, 3, 6, 9, 12, 15, 20, 40, 60, 80, and 100 μM) and 1 mM ascorbate. An NADPH-generating system consisting of 5 mM glucose 6-phosphate and 0.5 U of glucose-6-phosphate dehydrogenase/ml was added and reactions initiated by adding NADP+ to a final concentration of 0.5 mM. Reactions proceeded for 10 min at 37° C. with gentle shaking and then were terminated by addition of 2 ml CH2Cl2.
(§2) Extraction and Gas Chromatography/Mass Spectrometry Analysis of E2 and Metabolites. A deuterated internal standard (100 μl of 8 mg/liter E2-2, 4, 16, 16-d4 in methanol; CDN Isotopes, Pointe-Claire, Quebec) was added and all steroids extracted into CH2Cl2 by vortex mixing for 30 s. 1.5 ml of the CH2Cl2 fraction was evaporated to dryness under air and volatile TMS derivatives prepared by heating the residue with 100 μl of 50% NO-bis(trimethylsilyl)trifluoroacetamide/1% trimethyl chlorosilane in acetonitrile at 56° C. for 30 min. The TMS derivatives of E2 and its metabolites were separated by gas chromatography (H-P 5890, Hewlett-Packard, Wilmington, Del.) on a 5% phenyl methyl silicone stationary phase fused silica capillary column (30 m×0.2 mm×0.5 μm film, HP5; Hewlett-Packard). Helium carrier gas was used at a flow of 1 ml/min. The injector was operated at 250° C., with 2 μl injected in the splitless mode, with a purge (60 ml/min helium) time of 0.6 min. The oven temperature was held at 189° C. for 0.5 min, then raised at 6° C./min to 250° C. where it was held for 17 min, then raised to 300° C. at 8° C./min to give a total run time of 35.42 min. […] The EI mass spectrometer (H-P 5970) was operated in the selected ion monitoring mode from 18 to 34 min. Ions monitored were TMS2-E2-d4 420, 288, 330; TMS2-E2 416, 285, 326; TMS3-2-OH-E2 504, 373; TMS3-4-OH-E2 504, 373, 325; TMS3-16α-OH-E2 345, 311, 504. The instrument was calibrated by simultaneous preparation of an 11-point calibration over the range […]/tube of each compound. […] Internal standard added prior to extraction compensated for deviation from 100% recovery.
(§3) Statistical Analysis. Kinetic parameters (Km and kcat) were determined by nonlinear regression analysis using the computer program GraphPad PRISM (San Diego, Calif.).

CYP1B1 [2] = test: Assay of CYP1B1 E2 hydroxylation activity; type: biochemical, human; conditions: for 2-OH-Estradiol kcat: E2 2-hydroxylation; for 4-OH-Estradiol kcat: E2 4-hydroxylation; for 16a-OH-Esrradiol kcat: E2 16α-hydroxylation
Description: as §1, §2, §3

Molecule | levels of depurinating DNA adducts versus E2-2,3Q and E1-2,3Q (DNA) | Km (CYP1B1 [1]) | 2-OH-Estradiol kcat (CYP1B1 [2]) | 2-OH-Estradiol kcat (CYP1B1 [2]; listed as Wild type CYP1B1) | 2-OH-Estradiol kcat (CYP1B1 [2]; listed as wild type CYP1B1) | 4-OH-Estradiol kcat (CYP1B1 [2]) | 4-OH-Estradiol kcat (CYP1B1 [2]; listed as Wild type CYP1B1) | 4-OH-Estradiol kcat (CYP1B1 [2]; listed as wild type CYP1B1) | 16a-OH-Esrradiol kcat (CYP1B1 [2]) | 16a-OH-Esrradiol kcat (CYP1B1 [2]; listed as Wild type CYP1B1) | 16a-OH-Esrradiol kcat (CYP1B1 [2]; listed as wild type CYP1B1)
C[C@]12CC[C@@H]3C4=C(CC[C@H]3[C@@H]1CCC2=O)C(=O)C(=O)C=C4 [E1-3,4Q] | two to three orders of magnitude higher |  |  |  |  |  |  |  |  |  | 
C[C@]12CC[C@@H]3C4=C(CC[C@H]3[C@@H]1CC[C@@H]2O)C(=O)C(=O)C=C4 [E2-3,4Q] | two to three orders of magnitude higher |  |  |  |  |  |  |  |  |  | 
Wild type: purified recombinant His-tagged CYP1B1 with 48Arg, 119Ala, 432Val, 453Asn (protein) HHHHHHLLSVLATVHVGQRLLRQRRRQLRSAPPGPFAWPLIGNAAAVGQAAHLSFARLARRYGDVFQIRLGSCPIVVLNGERAIHQALVQQGSAFADRPAFASFRVVSGGRSMAFGHYSEHWKVQRRAAHSMMRNFFTRQPRSRQVLEGHVLSEARELVALLVRGSADGAFLDPRPLTVVAVANVMSAVCFGCRYSHDDPEFRELLSHNEEFGRTVGAGSLVDVMPWLQYFPNPVRTVFREFEQLNRNFSNFILDKFLRHCESLRPGAAPRDMMDAFILSAEKKAAGDSHGGGARLDLENVPATITDIFGASQDTLSTALQWLLLLFTRYPDVQTRVQAELDQVVGRDRLPCMGDQPNLPYVLAFLYEAMRFSSFVPVTIPHATTANTSVLGYHIPKDTVVFVNQWSVNHDPLKWPNPENFDPARFLDKDGLINKDLTSRVMIFSVGKRRCIGEELSKMQLFLFISILAHQCDFRANPNEPAKMNFSYGLTIKPKSFKVNVTLRESMELLDSAVQNLQAKETCQ |  | 34 ± 4 µM | 0.0317 ± 0.0017 s⁻¹ | 0.0317 ± 0.0017 s⁻¹ | 0.0317 ± 0.0017 s⁻¹ | 0.0733 ± 0.0067 s⁻¹ | 0.0733 ± 0.0067 s⁻¹ | 0.0733 ± 0.0067 s⁻¹ | 0.005 ± 0.00033 s⁻¹ | 0.005 ± 0.00033 s⁻¹ | 0.005 ± 0.00033 s⁻¹
